{
  "source": "paper PMC4627693",
  "about": "(Chemistry & biology, 2014)",
  "target": "c-Src tyrosine kinase (recombinant) (UniProt P00523 1-533)",
  "test": "cross-linking",
  "note": "Where no end group is shown, it is not given here. The star is where a group is joined. Biotin = O=C1N[C@H]2[C@H](CS[C@H]2CCCCC(=O)*)N1; code Z = ethylene glycol unit",
  "data": [
    {"binder": "{Biotin-code Z-code Z}-ICGEFRRR", "note": "[Cys-Srctide (Biotin-ZZICGEFRRR)]", "values": [
      {"measurement": "EC50", "value": 63, "unit": "µM"}
    ]}
  ]
}
